In patent US20190030060A1 one finds reduction in the MDSC population (CD33+ CD11b+ HLA-DR-/low) of myeloid cells cultured in HNSCC conditioned medium, flow cytometry, against isotype control mAb and detection limit data, which are given here for two substances.

Assay [1] concerns the target Semaphorin 4D secreted by HNSCC cell lines into conditioned medium (cleaved form, ~120 KDa) (human) (UniProt Q92854). Description: cell-based or functional assay.
In assay [2] the target is recombinant human Sema4D (sCD100) (Cat #310-29) (Peprotech, Rocky Hill, N.J.) (human) (UniProt Q92854). Kind of assay: indirect ELISA, antigen coated on plate, standard curve with recombinant Sema4D, goat anti-mouse IgM-HRP. A general note: In an ELISA, binding on a coated surface is turned into a signal by an enzyme label.

As for “anti-Sema4D antibody (clone 30/CD100) (Cat #610670) (BD Biosciences PharMingen, San Diego, Calif.)”, the reduction in the MDSC population (CD33+ CD11b+ HLA-DR-/low) of myeloid cells cultured in HNSCC conditioned medium, flow cytometry, against isotype control mAb in assay [1] was found to be 50%.
Take “anti-human CD100 antibody (clone: 133-1C6; Novus Biologicals)”: the detection limit in assay [2] amounted to 3.1 ng/mL.
